The target in assay [1] is T1, full-length TRAK1 (TRAK1^1–953) (human, UniProt Q9UPV9 1-953).
T1 construct: TRAK1, human, residues 1-953, full length; source: HEK 293 F GNTI-/- cells, PEI transfection, purified (TRAK purification procedure); not shown: His6-ZZ, N-terminal, cleaved; SNAP-tag or GFP, C-terminal, kept
T1 sequence (looked up): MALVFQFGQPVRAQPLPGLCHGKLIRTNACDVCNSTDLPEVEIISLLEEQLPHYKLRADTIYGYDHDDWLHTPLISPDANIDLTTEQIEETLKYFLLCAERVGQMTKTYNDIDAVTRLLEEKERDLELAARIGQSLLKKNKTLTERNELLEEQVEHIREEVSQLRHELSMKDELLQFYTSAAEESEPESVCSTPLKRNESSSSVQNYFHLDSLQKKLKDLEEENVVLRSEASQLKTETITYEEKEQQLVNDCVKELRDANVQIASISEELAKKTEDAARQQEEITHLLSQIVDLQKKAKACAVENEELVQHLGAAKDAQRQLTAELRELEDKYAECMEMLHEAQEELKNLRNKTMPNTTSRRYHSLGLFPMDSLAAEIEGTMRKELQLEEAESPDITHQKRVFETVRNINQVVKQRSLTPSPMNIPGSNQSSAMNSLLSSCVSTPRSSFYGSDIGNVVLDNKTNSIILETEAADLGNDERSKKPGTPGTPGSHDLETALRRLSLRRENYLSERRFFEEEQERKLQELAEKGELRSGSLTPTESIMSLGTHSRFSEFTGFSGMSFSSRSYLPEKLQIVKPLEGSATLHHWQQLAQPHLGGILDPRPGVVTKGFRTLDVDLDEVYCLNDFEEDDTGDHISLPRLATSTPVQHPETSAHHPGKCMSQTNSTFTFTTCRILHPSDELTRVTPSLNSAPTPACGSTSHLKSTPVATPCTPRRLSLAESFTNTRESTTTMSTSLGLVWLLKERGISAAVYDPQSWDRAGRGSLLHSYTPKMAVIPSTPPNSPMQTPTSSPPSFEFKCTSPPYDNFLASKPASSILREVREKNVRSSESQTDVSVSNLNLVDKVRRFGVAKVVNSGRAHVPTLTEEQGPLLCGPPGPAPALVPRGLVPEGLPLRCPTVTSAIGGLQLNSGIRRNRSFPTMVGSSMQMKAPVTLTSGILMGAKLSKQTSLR
Briefly: single-molecule TIRF colocalisation on microtubules; three-colour imaging of Alexa488-KIF5B, LD555-TRAK1 1-532 (or full-length TRAK1) and LD655-Miro1 1-592; 10 nM MAP7; 0, 0.1 and 2 mM Ca2+. Particulars: both partners purified.

Assay [2] addresses T2, full-length TRAK2 (TRAK2^1–914) (human, UniProt O60296 1-914).
T2 construct: TRAK2, human, residues 1-914, full length; source: HEK 293 F GNTI-/- cells, PEI transfection, purified (TRAK purification procedure); not shown: His6-ZZ, N-terminal, cleaved; SNAP-tag or GFP, C-terminal, kept
T2 sequence (looked up): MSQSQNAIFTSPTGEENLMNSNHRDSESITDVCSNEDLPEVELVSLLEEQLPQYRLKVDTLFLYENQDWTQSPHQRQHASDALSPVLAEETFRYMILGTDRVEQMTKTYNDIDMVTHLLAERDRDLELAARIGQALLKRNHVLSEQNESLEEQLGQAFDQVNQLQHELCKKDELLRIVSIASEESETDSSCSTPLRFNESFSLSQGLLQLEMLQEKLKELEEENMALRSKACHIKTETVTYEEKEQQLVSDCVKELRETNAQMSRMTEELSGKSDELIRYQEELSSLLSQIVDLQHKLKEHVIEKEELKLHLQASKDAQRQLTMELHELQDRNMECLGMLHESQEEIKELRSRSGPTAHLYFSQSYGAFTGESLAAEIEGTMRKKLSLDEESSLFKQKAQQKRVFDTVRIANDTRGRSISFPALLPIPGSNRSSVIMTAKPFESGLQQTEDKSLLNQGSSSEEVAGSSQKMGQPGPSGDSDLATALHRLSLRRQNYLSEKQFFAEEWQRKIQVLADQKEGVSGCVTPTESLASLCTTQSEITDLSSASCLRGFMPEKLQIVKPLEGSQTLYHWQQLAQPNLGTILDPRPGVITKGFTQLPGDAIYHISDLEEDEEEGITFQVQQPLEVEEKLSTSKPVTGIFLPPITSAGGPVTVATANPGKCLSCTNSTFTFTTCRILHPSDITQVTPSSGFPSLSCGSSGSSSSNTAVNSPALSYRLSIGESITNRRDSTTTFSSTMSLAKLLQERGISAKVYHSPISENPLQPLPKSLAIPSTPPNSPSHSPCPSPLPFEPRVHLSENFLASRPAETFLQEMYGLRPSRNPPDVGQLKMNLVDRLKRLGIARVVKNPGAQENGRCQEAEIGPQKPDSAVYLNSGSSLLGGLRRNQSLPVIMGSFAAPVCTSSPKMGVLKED
The experiment in a line: co-IP; purified proteins, 10 µg each, GFP-Trap beads, MB buffer with 100 mM NaCl and BSA; KIF5B-GFP-SNAPf, Miro1 1-592 and TRAK1 1-532, full-length TRAK1 or full-length TRAK2; with GTPγS or GDP; 0, 100 nM or 2 mM Ca2+. As to conditions: both partners purified.

B1: Miro1^1–592 (Miro1^1–592-SNAP-psc-StrepII) (domain or fragment, human, UniProt Q8IXI2 1-592, looked up)
chain: MKKDVRILLVGEPRVGKTSLIMSLVSEEFPEEVPPRAEEITIPADVTPERVPTHIVDYSEAEQSDEQLHQEISQANVICIVYAVNNKHSIDKVTSRWIPLINERTDKDSRLPLILVGNKSDLVEYSSMETILPIMNQYTEIETCVECSAKNLKNISELFYYAQKAVLHPTGPLYCPEEKEMKPACIKALTRIFKISDQDNDGTLNDAELNFFQRICFNTPLAPQALEDVKNVVRKHISDGVADSGLTLKGFLFLHTLFIQRGRHETTWTVLRRFGYDDDLDLTPEYLFPLLKIPPDCTTELNHHAYLFLQSTFDKHDLDRDCALSPDELKDLFKVFPYIPWGPDVNNTVCTNERGWITYQGFLSQWTLTTYLDVQRCLEYLGYLGYSILTEQESQASAVTVTRDKKIDLQKKQTQRNVFRCNVIGVKNCGKSGVLQALLGRNLMRQKKIREDHKSYYAINTVYVYGQEKYLLLHDISESEFLTEAEIICDVVCLVYDVSNPKSFEYCARIFKQHFMDSRIPCLIVAAKSDLHEVKQEYSISPTDFCRKHKMPPPQAFTCNTADAPSKDIFVKLTTMAMYPHVTQADLKSSTF
modifications: LD655 dye on the SNAP tag in motility assays
notes: mitochondrial Rho GTPase 1 (Miro1), human, residues 1-592, lacks the transmembrane domain; A PreScission site (psc) stands between SNAP and StrepII; no cleavage is told; also called Miro1^1–592-StrepII; Miro1^1–592-SNAPf-StrepII; source: purified (Streptactin Sepharose, eluted with desthiobiotin); not shown: SNAP, C-terminal, kept; StrepII, C-terminal, kept
B1: the binding result in assay [1] and in assay [2] was “binds” throughout.
